PMC12032919, “A blocking antibody against anti-Müllerian hormone restores ovulation and normal androgen levels in a spontaneous rat model of polycystic ovary syndrome” (eBioMedicine, 2025)

B1: Mab22A2, monoclonal antibody against human AMH (antibody, V domains shown)
VH: QIRLVQSGPELKKPGETVKISCKASGYSFTNYLMHWVKQAPGEALKWMGWINTNIGQPTYAEDFKGRFVFSLEASISTAFLHINSLKDEDTATYFCTSGYFGYDWYFDVWGVGTTVTVSS
VL: DIQMTQSPDSLSASVGETVTITCRASENIQNYLAWYQHKQGKSPQLLVYNAQTLANGVSSRFSGSGSGTHYSLNIHSLQPEDFGTYYCQHFWGTPRTFGGGTKLIIK
notes: the text calls the antibody IgG1a; Mouse IgG1 kappa; also called biotinylated Mab22A2; source: mouse monoclonal, previously prepared by immunisation of female BALB/c mice with human AMH precursor; hybridoma cells
B2: soluble fusion protein containing the extracellular domain of human AMHR2 and the Fc part of human IgG1 (AMHR2-Fc) (Fc fusion)
chain: PPNRRTCVFFEAPGVRGSTKTLGELLDTGTELPRAIRCLYSRCCFGIWNLTQDRAQVEMQGCRDSDEPGCESLHCDPSPRAHPSPGSTLFTCSCGTDFCNANYSHLPPPGSPGTPGSQGPQAAPGESIWMAL

Experiments:
[1] = biological target: T1, bovine AMH procomplex present in serum (Bos taurus, UniProt P03972); experiment: ELISA; AMH of bovine, ovine or mouse serum held on plate-captured AMHR2-Fc; detected with biotinylated Mab22A2 (0.5 ug/mL) and streptavidin-HRP; pair: Mab22A2 with serum AMH; conditions: one partner purified
T1 construct: anti-Müllerian hormone, bovine, N-terminal pro-domain of the procomplex; anti-Müllerian hormone, bovine, C-terminal mature domain of the procomplex; source: endogenous, serum of one bovine sample

[2] = biological target: T2, ovine AMH procomplex present in serum (Ovis aries, UniProt T1SHH2); experiment: as above; conditions: one partner purified
T2 construct: anti-Müllerian hormone, ovine, N-terminal pro-domain of the procomplex; anti-Müllerian hormone, ovine, C-terminal mature domain of the procomplex; source: endogenous, serum of one ovine sample

[3] = biological target: T3, mouse AMH procomplex present in serum (Mus musculus, strain , UniProt P27106); experiment: as above; conditions: one partner purified
T3 construct: anti-Müllerian hormone, mouse, N-terminal pro-domain of the procomplex; anti-Müllerian hormone, mouse, C-terminal mature domain of the procomplex; source: endogenous, serum of one mouse sample
T3 sequence (P27106 whole entry, looked up, the tested form may be a part, one chain of several): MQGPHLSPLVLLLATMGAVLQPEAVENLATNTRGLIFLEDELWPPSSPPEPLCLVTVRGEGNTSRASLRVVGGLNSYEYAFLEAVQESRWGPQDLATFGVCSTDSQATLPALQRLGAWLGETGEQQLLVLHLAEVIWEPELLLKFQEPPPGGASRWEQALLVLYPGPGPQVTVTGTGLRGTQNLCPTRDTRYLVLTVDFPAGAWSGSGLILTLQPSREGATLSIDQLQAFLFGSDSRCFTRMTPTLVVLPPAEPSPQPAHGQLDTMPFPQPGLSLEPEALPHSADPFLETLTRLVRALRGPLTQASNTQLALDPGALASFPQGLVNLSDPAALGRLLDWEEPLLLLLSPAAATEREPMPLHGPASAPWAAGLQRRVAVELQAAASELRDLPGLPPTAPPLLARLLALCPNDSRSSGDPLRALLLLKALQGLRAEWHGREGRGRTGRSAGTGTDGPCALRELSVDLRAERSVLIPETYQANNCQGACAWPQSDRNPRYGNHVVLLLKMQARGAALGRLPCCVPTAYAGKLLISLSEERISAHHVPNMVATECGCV

[4] = biological target: T4, human AMH procomplex (completely cleaved AMH, non-covalent complex of the N-terminal and C-terminal homodimers) (human); experiment: ELISA; AMH captured on Mab10.6 coated on plates, incubated with various concentrations of AMHR2-Fc; bound AMHR2-Fc detected with anti-human Fc antibody conjugated to HRP; n = 3
T4 sequence (P03971 25-560, looked up): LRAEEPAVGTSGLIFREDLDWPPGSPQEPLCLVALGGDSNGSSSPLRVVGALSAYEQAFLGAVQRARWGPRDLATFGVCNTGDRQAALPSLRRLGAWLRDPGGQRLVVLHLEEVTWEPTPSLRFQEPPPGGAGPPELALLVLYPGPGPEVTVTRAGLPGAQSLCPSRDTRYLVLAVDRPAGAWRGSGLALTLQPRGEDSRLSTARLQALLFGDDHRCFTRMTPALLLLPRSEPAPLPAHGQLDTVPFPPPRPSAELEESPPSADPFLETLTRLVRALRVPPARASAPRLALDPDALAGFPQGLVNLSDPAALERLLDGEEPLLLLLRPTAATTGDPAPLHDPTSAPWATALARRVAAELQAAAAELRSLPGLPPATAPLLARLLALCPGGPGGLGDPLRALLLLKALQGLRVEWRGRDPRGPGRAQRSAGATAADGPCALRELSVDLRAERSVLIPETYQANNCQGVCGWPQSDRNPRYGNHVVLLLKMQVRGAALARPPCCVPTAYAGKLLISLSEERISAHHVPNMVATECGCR

Row | Binder | binding result [1] | binding result [2] | binding result [3] | mean AUC of the ELISA curve [4]
1 | B1 | binds | binds | binds | 
2 | B2 |  |  |  | 75900
